Consider 9 molecules from article doi:10.1101/2020.02.11.943977.

Where two headings read alike, the source gives them in different places.

Common to all, as to experiment: EMSA
(In EMSA bound probe runs differently from free probe, usually more slowly.)

In data set [1] the target is T1, Replication protein A (RPA heterotrimer) (human, UniProt P27694;P15927;P35244 1-616;1-270;1-121).
Data set [2] addresses T1, Replication protein A (RPA heterotrimer). The source holds these as a separate data set.
The target is the same in data set [3]. This is another data set of the same source.
For data set [4] the target is unchanged. This is another data set of the same source.
Data set [5] shares this target. This is another data set of the same source.

T1 sequence (P27694 whole entry, chain 1 of 3): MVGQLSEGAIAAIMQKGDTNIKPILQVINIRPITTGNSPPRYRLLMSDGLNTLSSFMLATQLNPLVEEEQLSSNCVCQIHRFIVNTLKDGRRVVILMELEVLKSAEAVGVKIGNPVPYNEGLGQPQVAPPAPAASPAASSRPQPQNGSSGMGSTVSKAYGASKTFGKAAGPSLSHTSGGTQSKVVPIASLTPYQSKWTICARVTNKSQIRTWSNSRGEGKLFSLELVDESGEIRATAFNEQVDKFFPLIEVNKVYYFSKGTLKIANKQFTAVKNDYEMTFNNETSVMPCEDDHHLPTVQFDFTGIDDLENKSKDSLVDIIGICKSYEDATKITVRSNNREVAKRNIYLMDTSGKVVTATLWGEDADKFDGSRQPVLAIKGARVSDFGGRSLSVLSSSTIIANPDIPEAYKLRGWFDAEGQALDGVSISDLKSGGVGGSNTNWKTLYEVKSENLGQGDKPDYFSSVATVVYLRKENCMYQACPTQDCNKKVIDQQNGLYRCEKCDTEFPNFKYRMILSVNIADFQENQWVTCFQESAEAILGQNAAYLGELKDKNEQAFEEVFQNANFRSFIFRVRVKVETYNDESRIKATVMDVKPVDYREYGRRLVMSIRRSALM
T1 sequence (P15927 whole entry, chain 2 of 3): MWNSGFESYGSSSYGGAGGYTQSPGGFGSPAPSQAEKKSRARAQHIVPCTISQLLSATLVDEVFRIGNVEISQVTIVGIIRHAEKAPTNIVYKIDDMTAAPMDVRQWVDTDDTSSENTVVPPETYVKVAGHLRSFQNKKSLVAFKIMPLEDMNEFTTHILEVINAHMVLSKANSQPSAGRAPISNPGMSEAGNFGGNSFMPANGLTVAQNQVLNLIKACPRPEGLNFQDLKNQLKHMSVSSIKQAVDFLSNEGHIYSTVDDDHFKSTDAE
T1 sequence (P35244 whole entry, chain 3 of 3): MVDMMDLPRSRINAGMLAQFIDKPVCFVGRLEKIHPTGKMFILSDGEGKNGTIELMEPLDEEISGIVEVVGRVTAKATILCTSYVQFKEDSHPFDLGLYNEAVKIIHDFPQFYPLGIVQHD

As to GAAGCAUUUAUCAGGGUUAUUGUC (ssRNA) [RNA no. 5R (24 nt)], in data set [1], the “apparent K (half saturation)” value was found to be 120 nM.
On the same count and under the same terms, the value for GAAGCAUUUAUCAGGGUUAUUGUCUCAUGAGCGGAU (ssRNA) [RNA no. 6R (36 nt)] was 65 nM.
A word on the Kd: it is a measure of binding affinity in units of concentration. A higher Kd goes with lower affinity. As for AAUGCUUAAUCAGUGAGGCACCUAUCUCAGCGAUCUGUCUAUUUCGUU (ssRNA) [RNA no. 3R], the Kd in data set [2] came out at 0.1 ± 0.0232 nM.
Molecule GAAGCATTTATCAGGGTTATTGTCTCATGAGCGGATACATATTTGAAT (ssDNA) [ssDNA no. 211] had a Kd in data set [3] of 0.0031 ± 0.0006 nM.

B1: dsDNA nos. 211/212 (dsDNA)
DNA 1: GAAGCATTTATCAGGGTTATTGTCTCATGAGCGGATACATATTTGAAT
DNA 2: ATTCAAATATGTATCCGCTCATGAGACAATAACCCTGATAAATGCTTC
As for B1, the affinity in data set [3], expressed as Kd, was 35.5 ± 7 nM.
As to GAAGCAUUUAUCAGGGUUAUUGUCUCAUGAGCGGAUACAUAUUUGAAU (ssRNA) [RNA no. 501], the dissociation constant (Kd) in data set [3] turned out to be 0.101 ± 0.017 nM; in data set [4], 0.072 ± 0.0102 nM.

B2: RNA-DNA hybrid nos. 501/212 (DNA:RNA)
RNA: GAAGCAUUUAUCAGGGUUAUUGUCUCAUGAGCGGAUACAUAUUUGAAU
DNA: B1 DNA 2
B2 yielded an equilibrium dissociation constant (Kd) in data set [3] of 85.9 ± 4.5 nM.
On to CGUUAAGGGAUUUUGGUCAUGAGAUUAUCAAAAAGGAUCUUCACCUAG (ssRNA) [RNA no. 7R], for which the affinity in data set [5], expressed as Kd, was 0.248 ± 0.0327 nM.
On the same count and under the same terms, the value for UUUUAAAUCAAUCUAAAGUAUAUAUGAGUAAACUUGGUCUGACAGUUA (ssRNA) [RNA no. 8R] was 0.0629 ± 0.0082 nM.
